Reference: patent US20080145903A1, “PROCESSES OF PRODUCING FERMENTATION PRODUCTS” (priority 2006, published 2008)

System: RED STAR yeast
Assay: Conventional simultaneous saccharification fermentation (SSF) of liquefied corn mash, ethanol yield by weight loss and HPLC
Type: cell-based
Conditions: conventional SSF, 70 hours
Method: Liquefied corn mash was used to evaluate the effect of adding salicylic acid (SA) to a known enzyme dosage of
The performance of these enzymes was compared to controls without salicylic acid addition. The experimental set-up used is described in table below.
5.5 g of RED STAR™ yeast was rehydrated in 100 mL distilled water and incubated at 32° C. for 30 minutes prior to the beginning of fermentation. Approximately 50 million cells/g DS of yeast were added to each of the fermentations.
The corn mash was thawed to room temperature. Urea and Penicillin were added to a final concentration of […] and 3 mg/L respectively. Small-scale (˜4 g) fermentations were carried out in 15 mL polypropylene tubes with five replicates for each experimental condition. The tubes were prepared by drilling a 1/32 inch (1.5 mm) hole and the empty tubes were then weighed before liquefied corn mash was added. The tubes were weighed again after mash was added to determine the exact weight of mash in each tube. This weight was used to calculate the enzyme dosage necessary as follows:
Enzyme was added according to dosage described in table above and 100 μl of rehydrated yeast were added to each tube to begin fermentation. Fermentation progress was followed by weighing the tubes over time for approximately 70 hours. Tubes were vortexed briefly before each weighing. […]

B1: Aspergillus niger GA: Aspergillus niger G1 glucoamylase disclosed in Boel et al., 1984, EMBO J. 3 (5): 1097-1102 (protein, UniProt P69328 25-640, looked up)
Glucoamylase: ATLDSWLSNEATVARTAILNNIGADGAWVSGADSGIVVASPSTDNPDYFYTWTRDSGLVLKTLVDLFRNGDTSLLSTIENYISAQAIVQGISNPSGDLSSGAGLGEPKFNVDETAYTGSWGRPQRDGPALRATAMIGFGQWLLDNGYTSTATDIVWPLVRNDLSYVAQYWNQTGYDLWEEVNGSSFFTIAVQHRALVEGSAFATAVGSSCSWCDSQAPEILCYLQSFWTGSFILANFDSSRSGKDANTLLGSIHTFDPEAACDDSTFQPCSPRALANHKEVVDSFRSIYTLNDGLSDSEAVAVGRYPEDTYYNGNPWFLCTLAAAEQLYDALYQWDKQGSLEVTDVSLDFFKALYSDAATGTYSSSSSTYSSIVDAVKTFADGFVSIVETHAASNGSMSEQYDKSDGEQLSARDLTWSYAALLTANNRRNSVVPASWGETSASSVPGTCAATSAIGTYSSVTVTSWPSIVATGGTTTTATPTGSGSVTSTSKTTATASKTSTSTSSTSCTTPTAVAVTFDLTATTTYGENIYLVGSISQLGDWETSDGIALSADKYTSSDPLWYVTVTLPAGESFEYKFIRIESDDSVEWESDPNREYTVPQACGTSTATVTDTWR
Ethanol yield after 70 hours fermentation determined by HPLC, With SA (SA dose 5.0 mM/gDS): 117.67
Ethanol yield after 70 hours fermentation determined by HPLC, without SA (no SA): 113.74
